The text below walks through data of PMC3290569, “Macro-to-Micro Structural Proteomics: Native Source Proteins for High-Throughput Crystallization” (PLoS ONE, 2012).

The series concerns the molecule itself. As to the kind of experiment: crystal structure; native source E. coli proteins already in the PDB, identified and solved by brute-force molecular replacement, not refined except to confirm the solution; oligomer seen in the crystal.

B1: Adenylosuccinate synthetase (enzyme, Escherichia coli, UniProt P0A7D4 1-432, looked up)
chain: MGNNVVVLGTQWGDEGKGKIVDLLTERAKYVVRYQGGHNAGHTLVINGEKTVLHLIPSGILRENVTSIIGNGVVLSPAALMKEMKELEDRGIPVRERLLLSEACPLILDYHVALDNAREKARGAKAIGTTGRGIGPAYEDKVARRGLRVGDLFDKETFAEKLKEVMEYHNFQLVNYYKAEAVDYQKVLDDTMAVADILTSMVVDVSDLLDQARQRGDFVMFEGAQGTLLDIDHGTYPYVTSSNTTAGGVATGSGLGPRYVDYVLGILKAYSTRVGAGPFPTELFDETGEFLCKQGNEFGATTGRRRRTGWLDTVAVRRAVQLNSLSGFCLTKLDVLDGLKEVKLCVAYRMPDGREVTTTPLAADDWKGVEPIYETMPGWSESTFGVKDRSGLPQAALNYIKRIEELTGVPIDIISTGPDRTETMILRDPFDA
notes: adenylosuccinate synthetase, Escherichia coli, native source protein; identified with PDB 1CG1; the PDB entry is the previously deposited structure that identified the protein; the crystallised protein is the native one; source: purified from E. coli DH5α cells (whole-proteome fractionation)
As for B1, the binding result was “binds”.

B2: Lysyl-tRNA synthetase (constitutive) (enzyme, Escherichia coli, UniProt P0A8N3 1-505, looked up)
chain: MSEQHAQGADAVVDLNNELKTRREKLANLREQGIAFPNDFRRDHTSDQLHAEFDGKENEELEALNIEVAVAGRMMTRRIMGKASFVTLQDVGGRIQLYVARDDLPEGVYNEQFKKWDLGDILGAKGKLFKTKTGELSIHCTELRLLTKALRPLPDKFHGLQDQEARYRQRYLDLISNDESRNTFKVRSQILSGIRQFMVNRGFMEVETPMMQVIPGGAAARPFITHHNALDLDMYLRIAPELYLKRLVVGGFERVFEINRNFRNEGISVRHNPEFTMMELYMAYADYKDLIELTESLFRTLAQDILGKTEVTYGDVTLDFGKPFEKLTMREAIKKYRPETDMADLDNFDSAKAIAESIGIHVEKSWGLGRIVTEIFEEVAEAHLIQPTFITEYPAEVSPLARRNDVNPEITDRFEFFIGGREIGNGFSELNDAEDQAQRFLDQVAAKDAGDDEAMFYDEDYVTALEHGLPPTAGLGIGIDRMVMLFTNSHTIRDVILFPAMRPVK
notes: lysyl-tRNA synthetase, constitutive form, Escherichia coli, native source protein; identified with PDB 1BBW; the PDB entry is the previously deposited structure that identified the protein; the crystallised protein is the native one; source: purified from E. coli DH5α cells (whole-proteome fractionation)
On to B2, for which the binding result is “binds”.

B3: Malate dehydrogenase (enzyme, Escherichia coli, UniProt P61889 1-312, looked up)
chain: MKVAVLGAAGGIGQALALLLKTQLPSGSELSLYDIAPVTPGVAVDLSHIPTAVKIKGFSGEDATPALEGADVVLISAGVARKPGMDRSDLFNVNAGIVKNLVQQVAKTCPKACIGIITNPVNTTVAIAAEVLKKAGVYDKNKLFGVTTLDIIRSNTFVAELKGKQPGEVEVPVIGGHSGVTILPLLSQVPGVSFTEQEVADLTKRIQNAGTEVVEAKAGGGSATLSMGQAAARFGLSLVRALQGEQGVVECAYVEGDGQYARFFSQPLLLGKNGVEERKSIGTLSAFEQNALEGMLDTLKKDIALGEEFVNK
notes: malate dehydrogenase, Escherichia coli, native source protein; identified with PDB 2PWZ; the PDB entry is the previously deposited structure that identified the protein; the crystallised protein is the native one; source: purified from E. coli DH5α cells (whole-proteome fractionation)
On to B3, for which the binding result is “binds”.

B4: Cystathione gamma-synthase (enzyme, Escherichia coli, UniProt P00935 1-386, looked up)
chain: MTRKQATIAVRSGLNDDEQYGCVVPPIHLSSTYNFTGFNEPRAHDYSRRGNPTRDVVQRALAELEGGAGAVLTNTGMSAIHLVTTVFLKPGDLLVAPHDCYGGSYRLFDSLAKRGCYRVLFVDQGDEQALRAALAEKPKLVLVESPSNPLLRVVDIAKICHLAREVGAVSVVDNTFLSPALQNPLALGADLVLHSCTKYLNGHSDVVAGVVIAKDPDVVTELAWWANNIGVTGGAFDSYLLLRGLRTLVPRMELAQRNAQAIVKYLQTQPLVKKLYHPSLPENQGHEIAARQQKGFGAMLSFELDGDEQTLRRFLGGLSLFTLAESLGGVESLISHAATMTHAGMAPEARAAAGISETLLRISTGIEDGEDLIADLENGFRAANKG
notes: cystathionine gamma-synthase (printed: Cystathione gamma-synthase), Escherichia coli, native source protein; identified with PDB 1CS1; the PDB entry is the previously deposited structure that identified the protein; the crystallised protein is the native one; source: purified from E. coli DH5α cells (whole-proteome fractionation)
B4: the binding result is on record as “binds”.

B5: ycaC gene product (natural protein, Escherichia coli, UniProt P21367 1-208, looked up)
chain: MTKPYVRLDKNDAAVLLVDHQAGLLSLVRDIEPDKFKNNVLALGDLAKYFNLPTILTTSFETGPNGPLVPELKAQFPDTPYIARPGNINAWDNEDFVKAVKATGKKQLIIAGVVTEVCVAFPALSAIEEGFDVFVVTDASGTFNEITRHSAWDRLSQAGAQLMTWFGVACELHRDWRNDIEGLATLFSNHIPDYRNLMTSYDTLTKQK
notes: ycaC gene product, Escherichia coli, native source protein; identified with PDB 1YAC; the PDB entry is the previously deposited structure that identified the protein; the crystallised protein is the native one; source: purified from E. coli DH5α cells (whole-proteome fractionation)
For B5, the binding result is listed as “binds”.

B6: 5-keto-4-deoxyuronate isomerase (enzyme, Escherichia coli, UniProt Q46938 1-278, looked up)
chain: MDVRQSIHSAHAKTLDTQGLRNEFLVEKVFVADEYTMVYSHIDRIIVGGIMPITKTVSVGGEVGKQLGVSYFLERRELGVINIGGAGTITVDGQCYEIGHRDALYVGKGAKEVVFASIDTGTPAKFYYNCAPAHTTYPTKKVTPDEVSPVTLGDNLTSNRRTINKYFVPDVLETCQLSMGLTELAPGNLWNTMPCHTHERRMEVYFYFNMDDDACVFHMMGQPQETRHIVMHNEQAVISPSWSIHSGVGTKAYTFIWGMVGENQVFDDMDHVAVKDLR
notes: 5-keto-4-deoxyuronate isomerase, Escherichia coli, native source protein; identified with PDB 1XRU; the PDB entry is the previously deposited structure that identified the protein; the crystallised protein is the native one; source: purified from E. coli DH5α cells (whole-proteome fractionation)
For B6, the binding result is recorded as “binds”.

B7: phosphoserine aminotransferase (enzyme, Escherichia coli, UniProt P23721 1-362, looked up)
chain: MAQIFNFSSGPAMLPAEVLKQAQQELRDWNGLGTSVMEVSHRGKEFIQVAEEAEKDFRDLLNVPSNYKVLFCHGGGRGQFAAVPLNILGDKTTADYVDAGYWAASAIKEAKKYCTPNVFDAKVTVDGLRAVKPMREWQLSDNAAYMHYCPNETIDGIAIDETPDFGADVVVAADFSSTILSRPIDVSRYGVIYAGAQKNIGPAGLTIVIVREDLLGKANIACPSILDYSILNDNGSMFNTPPTFAWYLSGLVFKWLKANGGVAEMDKINQQKAELLYGVIDNSDFYRNDVAKANRSRMNVPFQLADSALDKLFLEESFAAGLHALKGHRVVGGMRASIYNAMPLEGVKALTDFMVEFERRHG
notes: phosphoserine aminotransferase, Escherichia coli, native source protein; identified with PDB 1BJN; the PDB entry is the previously deposited structure that identified the protein; the crystallised protein is the native one; source: purified from E. coli DH5α cells (whole-proteome fractionation)
B7: the binding result was “binds”.
